Measured values reported in patent publication US20230257470A1 (published 2023).
Numbering of substitutions follows the chain as printed. Names may count otherwise.

Columns and labels:
[1] = molecular target: T1, human FcγRIIa(R) (human, UniProt P12318 36-217); test: SPR (Biacore), antibody captured, FcγR as analyte; amount bound / that of GpH7-B3/GpL16-k0 x 100;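 also: FcγR binding response divided by the captured antibody amount before comparison, measured at 25 °C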
T1 construct: also called FcgRIIaR; FcγRIIa type R
T1 chain: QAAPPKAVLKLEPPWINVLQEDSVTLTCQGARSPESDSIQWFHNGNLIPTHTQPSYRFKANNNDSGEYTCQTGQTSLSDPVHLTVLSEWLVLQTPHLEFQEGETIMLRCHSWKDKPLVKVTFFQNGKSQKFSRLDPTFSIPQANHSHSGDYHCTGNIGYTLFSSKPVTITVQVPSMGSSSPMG
Description: (§1) Interaction between each modified antibody and Fcγ receptor prepared in the manner described above was analyzed using the BIACORE™ T100 surface plasmon resonance system (GE Healthcare), BIACORE™ T200 surface plasmon resonance system (GE Healthcare), BIACORE™ A100 surface plasmon resonance system or BIACORE™ 4000 surface plasmon resonance system. HBS-EP+(GE Healthcare) was used for the running buffer, and measurements were carried out at 25° C. The chips used were chips in which antigen peptides, Protein A (Thermo Scientific), Protein A/G (Thermo Scientific) or Protein L (ACTIGEN® protein (Alltech or BioVision) were immobilized on the Series S Sensor Chip CM5 (GE Healthcare) or Series S Sensor Chip CM4 (GE Healthcare) by amine coupling, or chips in which preliminarily biotinylated antigen peptides were allowed to interact and then immobilized on the Series S Sensor Chip SA (certified) (GE Healthcare). The target antibodies were captured on these sensor chips, Fcγ receptor diluted with the running buffer was allowed to interact, followed by measurement of the amount of bound antibody. The amounts bound were compared between antibodies. However, since the amount of Fcγ receptor bound depends on the amount of captured antibody, the values used for comparison were first corrected by dividing the amount of Fcγ receptor bound by the captured amount of each antibody. Through reaction with 10 mM glycine-HCl at pH 1.5, the sensor chips were regenerated by washing off antibody captured on the sensor chips and used repeatedly.
(§2) Binding strength was evaluated according to the following method based on the results of analyzing the interaction with each FcγR. […] That value was then further multiplied by 100, and the resulting value was used as an indicator of relative binding activity to each FcγR.

[2] = molecular target: T2, human FcγRIIb (human, UniProt P31994 43-217, limits assumed); test: as above
T2 construct: also called FcgRIIb; FcγIIB
T2 sequence: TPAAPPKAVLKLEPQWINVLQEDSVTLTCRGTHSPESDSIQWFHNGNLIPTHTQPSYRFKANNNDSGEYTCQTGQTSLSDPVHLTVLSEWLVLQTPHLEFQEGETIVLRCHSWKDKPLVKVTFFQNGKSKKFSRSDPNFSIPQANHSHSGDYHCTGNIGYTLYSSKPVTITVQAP
Description: as §1, §2

[3] = molecular target: T3, human FcγRIIa(H) (human, UniProt P12318 36-217); test: as above
T3 construct: also called FcgRIIaH; FcγRIIa type H
T3 sequence: T1 chain with R133H
Description: as §1, §2

[4] = molecular target: T4, human FcγRIIIa(F) (human, UniProt P08637 17-208, limits assumed); test: as above
T4 construct: also called FcgRIIIaF; FcγRIIIa allotype F158
Description: as §1, §2

[5] = molecular target: T5, human FcγRIa (human, UniProt P12314 16-292, limits assumed); test: as above
T5 construct: also called FcgRIa; CD64
T5 sequence (P12314 16-292 limits assumed): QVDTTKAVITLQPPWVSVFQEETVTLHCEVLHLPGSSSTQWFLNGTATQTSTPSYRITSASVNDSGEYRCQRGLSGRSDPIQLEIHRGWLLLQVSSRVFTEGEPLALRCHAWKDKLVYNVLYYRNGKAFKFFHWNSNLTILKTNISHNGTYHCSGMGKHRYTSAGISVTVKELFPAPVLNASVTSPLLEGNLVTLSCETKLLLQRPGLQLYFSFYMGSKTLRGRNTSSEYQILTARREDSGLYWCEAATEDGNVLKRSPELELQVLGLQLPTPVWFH
Description: as §1, §2

[6] = molecular target: T6, human FcγRIIa type R (human, UniProt P12318 36-217); test: SPR (Biacore), FcγR over captured antibody; binding amount divided by that of IL6R-BF648/IL6R-L x 100
T6 construct: also called FcgRIIaR; FcγRIIa(R)
T6 chain: T1 chain
Description: (§3) According to the following method, relative binding activities were calculated for the results of analyzing interactions with the respective FcγRs.

[7] = molecular target: T7, human FcγRIa (human, UniProt P12314 16-292, limits assumed); test: as above
T7 construct: also called FcgRIa; FcγRI (CD64)
T7 sequence (P12314 16-292 limits assumed): as above
Description: as §3

[8] = molecular target: T8, human FcγRIIa type H (human, UniProt P12318 36-217); test: as above
T8 construct: also called FcgRIIaH; FcγRIIa(H)
T8 sequence: T1 chain with R133H
Description: as §3

[9] = molecular target: T9, human FcγRIIIa type V (human, UniProt P08637 17-208, limits assumed); test: as above
T9 construct: also called FcgRIIIaV; FcγRIIIa(V)
Description: as §3

[10] = molecular target: T10, human FcγRIIb (human, UniProt P31994 43-217, limits assumed); test: as above
T10 construct: also called FcgRIIb; FcγIIB
T10 sequence: T2 sequence
Description: as §3

T9 sequence (P08637 other isoform, or with tags, fused parts or gaps limits assumed): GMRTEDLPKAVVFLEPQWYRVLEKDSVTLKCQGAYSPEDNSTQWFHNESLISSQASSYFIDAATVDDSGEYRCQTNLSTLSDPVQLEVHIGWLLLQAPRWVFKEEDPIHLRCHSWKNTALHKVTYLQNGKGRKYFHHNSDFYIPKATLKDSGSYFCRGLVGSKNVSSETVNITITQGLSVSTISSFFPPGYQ
T4 sequence (P08637 other isoform, or with tags, fused parts or gaps limits assumed): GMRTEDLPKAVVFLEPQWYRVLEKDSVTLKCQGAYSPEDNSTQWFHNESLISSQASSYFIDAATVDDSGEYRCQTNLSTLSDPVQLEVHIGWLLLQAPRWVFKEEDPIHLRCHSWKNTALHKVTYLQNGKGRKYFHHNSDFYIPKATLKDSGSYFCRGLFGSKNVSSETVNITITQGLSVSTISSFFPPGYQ

B1: GpH7-B3/GpL16-k0 variant S298P (antibody, human IgG1)
heavy: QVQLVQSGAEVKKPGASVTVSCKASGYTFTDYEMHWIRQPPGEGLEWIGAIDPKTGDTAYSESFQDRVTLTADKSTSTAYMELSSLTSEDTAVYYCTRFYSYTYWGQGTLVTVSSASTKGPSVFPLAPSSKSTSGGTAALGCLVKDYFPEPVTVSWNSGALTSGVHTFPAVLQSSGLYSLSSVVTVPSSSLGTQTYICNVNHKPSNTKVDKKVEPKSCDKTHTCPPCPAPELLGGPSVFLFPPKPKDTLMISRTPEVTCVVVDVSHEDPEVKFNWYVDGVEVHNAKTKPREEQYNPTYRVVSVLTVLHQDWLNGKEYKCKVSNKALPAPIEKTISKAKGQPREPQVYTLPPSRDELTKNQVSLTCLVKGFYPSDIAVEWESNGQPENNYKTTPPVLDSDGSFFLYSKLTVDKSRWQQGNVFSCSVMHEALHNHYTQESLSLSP
light: DIVMTQSPLSLPVTPGEPASISCQASESLVHSNRNTYLHWYLQKPGQSPQLLIYKVSNRFSGVPDRFSGSGSGTDFTLKISRVEAEDVGVYYCSQNTHVPPTFGQGTKVEIE
notes: also called B3 variant; copies: 2 + 2
relative binding activity [1]: 0 GpH7-B3/GpL16-k0 = 100 | relative binding activity [2]: -1 GpH7-B3/GpL16-k0 = 100 | relative binding activity [3]: 0 GpH7-B3/GpL16-k0 = 100 | relative binding activity [4]: 0 GpH7-B3/GpL16-k0 = 100 | relative binding activity [5]: 15 GpH7-B3/GpL16-k0 = 100

B2: GpH7-B3/GpL16-k0 variant S298R (antibody, human IgG1)
heavy: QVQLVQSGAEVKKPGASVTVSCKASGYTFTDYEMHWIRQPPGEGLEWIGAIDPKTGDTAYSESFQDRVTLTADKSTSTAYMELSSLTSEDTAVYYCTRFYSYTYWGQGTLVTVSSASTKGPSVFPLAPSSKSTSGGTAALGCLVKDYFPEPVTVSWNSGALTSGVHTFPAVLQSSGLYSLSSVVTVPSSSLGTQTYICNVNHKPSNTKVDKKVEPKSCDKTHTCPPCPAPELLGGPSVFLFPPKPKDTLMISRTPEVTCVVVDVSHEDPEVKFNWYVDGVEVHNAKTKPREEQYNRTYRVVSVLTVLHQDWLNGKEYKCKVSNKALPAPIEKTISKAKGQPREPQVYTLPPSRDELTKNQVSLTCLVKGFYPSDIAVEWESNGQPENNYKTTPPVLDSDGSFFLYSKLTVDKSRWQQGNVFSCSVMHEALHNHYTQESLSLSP
light: B1 light
notes: as for B1
relative binding activity [1]: 62 GpH7-B3/GpL16-k0 = 100 | relative binding activity [2]: 22 GpH7-B3/GpL16-k0 = 100 | relative binding activity [3]: 36 GpH7-B3/GpL16-k0 = 100 | relative binding activity [4]: 20 GpH7-B3/GpL16-k0 = 100 | relative binding activity [5]: 92 GpH7-B3/GpL16-k0 = 100

B3: GpH7-B3/GpL16-k0 variant S298Y (antibody, human IgG1)
heavy: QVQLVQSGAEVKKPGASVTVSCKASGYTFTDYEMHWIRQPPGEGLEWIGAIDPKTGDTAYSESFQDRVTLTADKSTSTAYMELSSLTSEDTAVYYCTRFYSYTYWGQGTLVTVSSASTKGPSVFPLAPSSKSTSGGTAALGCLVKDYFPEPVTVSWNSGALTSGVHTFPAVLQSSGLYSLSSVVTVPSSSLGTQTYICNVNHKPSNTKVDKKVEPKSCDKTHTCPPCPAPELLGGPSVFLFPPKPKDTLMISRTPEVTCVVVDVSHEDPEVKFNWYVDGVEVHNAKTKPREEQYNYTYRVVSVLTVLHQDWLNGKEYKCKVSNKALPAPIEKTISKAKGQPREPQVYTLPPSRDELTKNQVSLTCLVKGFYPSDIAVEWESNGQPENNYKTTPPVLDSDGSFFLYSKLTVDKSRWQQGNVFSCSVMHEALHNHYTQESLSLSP
light: B1 light
notes: as for B1
relative binding activity [1]: 33 GpH7-B3/GpL16-k0 = 100 | relative binding activity [2]: 23 GpH7-B3/GpL16-k0 = 100 | relative binding activity [3]: 35 GpH7-B3/GpL16-k0 = 100 | relative binding activity [4]: 71 GpH7-B3/GpL16-k0 = 100 | relative binding activity [5]: 100 GpH7-B3/GpL16-k0 = 100

B4: GpH7-B3/GpL16-k0 variant Y296G (antibody, human IgG1)
heavy: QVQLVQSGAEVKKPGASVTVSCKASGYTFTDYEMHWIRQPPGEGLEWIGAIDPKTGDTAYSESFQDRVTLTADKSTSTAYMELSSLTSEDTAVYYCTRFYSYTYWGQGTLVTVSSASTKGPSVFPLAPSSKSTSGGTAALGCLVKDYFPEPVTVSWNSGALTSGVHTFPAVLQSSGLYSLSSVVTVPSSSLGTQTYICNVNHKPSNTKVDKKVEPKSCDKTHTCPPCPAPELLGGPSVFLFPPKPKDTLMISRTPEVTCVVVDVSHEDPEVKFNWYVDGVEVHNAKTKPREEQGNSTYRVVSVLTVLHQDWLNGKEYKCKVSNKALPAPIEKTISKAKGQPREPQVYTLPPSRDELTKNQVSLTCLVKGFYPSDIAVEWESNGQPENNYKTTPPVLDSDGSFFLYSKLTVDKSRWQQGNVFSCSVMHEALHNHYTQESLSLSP
light: B1 light
notes: as for B1
relative binding activity [1]: 77 GpH7-B3/GpL16-k0 = 100 | relative binding activity [2]: 58 GpH7-B3/GpL16-k0 = 100 | relative binding activity [3]: 83 GpH7-B3/GpL16-k0 = 100 | relative binding activity [4]: 21 GpH7-B3/GpL16-k0 = 100 | relative binding activity [5]: 100 GpH7-B3/GpL16-k0 = 100

B5: GpH7-B3/GpL16-k0 variant Y296K (antibody, human IgG1)
heavy: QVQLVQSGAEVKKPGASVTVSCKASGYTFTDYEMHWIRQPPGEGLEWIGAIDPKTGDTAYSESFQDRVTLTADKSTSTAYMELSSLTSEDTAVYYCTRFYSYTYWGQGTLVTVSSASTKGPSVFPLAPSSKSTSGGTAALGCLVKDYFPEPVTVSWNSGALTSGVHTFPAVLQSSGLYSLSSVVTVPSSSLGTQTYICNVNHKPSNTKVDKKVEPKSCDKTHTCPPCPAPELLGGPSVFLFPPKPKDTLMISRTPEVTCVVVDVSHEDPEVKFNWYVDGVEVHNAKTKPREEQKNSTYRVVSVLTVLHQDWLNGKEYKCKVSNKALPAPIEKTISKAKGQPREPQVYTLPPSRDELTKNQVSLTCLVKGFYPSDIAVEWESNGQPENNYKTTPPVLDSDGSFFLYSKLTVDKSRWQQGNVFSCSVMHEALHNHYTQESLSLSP
light: B1 light
notes: as for B1
relative binding activity [1]: 70 GpH7-B3/GpL16-k0 = 100 | relative binding activity [2]: 45 GpH7-B3/GpL16-k0 = 100 | relative binding activity [3]: 66 GpH7-B3/GpL16-k0 = 100 | relative binding activity [4]: 21 GpH7-B3/GpL16-k0 = 100 | relative binding activity [5]: 99 GpH7-B3/GpL16-k0 = 100

B6: GpH7-B3/GpL16-k0 variant Y296R (antibody, human IgG1)
heavy: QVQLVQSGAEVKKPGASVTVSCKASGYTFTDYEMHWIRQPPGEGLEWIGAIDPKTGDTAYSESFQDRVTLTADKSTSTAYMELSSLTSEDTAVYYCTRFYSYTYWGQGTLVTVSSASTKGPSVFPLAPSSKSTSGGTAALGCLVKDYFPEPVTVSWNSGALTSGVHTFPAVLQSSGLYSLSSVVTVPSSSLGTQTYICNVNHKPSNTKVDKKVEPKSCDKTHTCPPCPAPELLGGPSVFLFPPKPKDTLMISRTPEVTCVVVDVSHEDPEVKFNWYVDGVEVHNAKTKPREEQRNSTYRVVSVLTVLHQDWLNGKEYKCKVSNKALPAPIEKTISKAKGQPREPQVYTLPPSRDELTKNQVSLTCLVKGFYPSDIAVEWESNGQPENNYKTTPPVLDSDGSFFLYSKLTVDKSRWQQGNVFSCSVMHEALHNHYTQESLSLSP
light: B1 light
notes: as for B1
relative binding activity [1]: 77 GpH7-B3/GpL16-k0 = 100 | relative binding activity [2]: 52 GpH7-B3/GpL16-k0 = 100 | relative binding activity [3]: 74 GpH7-B3/GpL16-k0 = 100 | relative binding activity [4]: 38 GpH7-B3/GpL16-k0 = 100 | relative binding activity [5]: 100 GpH7-B3/GpL16-k0 = 100

B7: IL6R-BP082/IL6R-L (antibody, human IgG1, name in EU numbering)
heavy: QVQLQESGPGLVKPSETLSLTCAVSGHSISHDHAWSWVRQPPGEGLEWIGFISYSGITNYNPSLQGRVTISRDNSKNTLYLQMNSLRAEDTAVYYCARSLARTTAMDYWGEGTLVTVSSASTKGPSVFPLAPSSKSTSGGTAALGCLVKDYFPEPVTVSWNSGALTSGVHTFPAVLQSSGLYSLSSVVTVPSSSLGTQTYICNVNHKPSNTKVDKKVEPKSCDKTHTCPPCPAPDLLGGDSVFLFPPKPKDTLMISRTPEVTCVVVDVSHEDPEVKFNWYVDGVEVHNAKTKPREEQYNSTYRVVSVLTVLHQDWLNGKEYKCKVSNKALPKPIEKTISKAKGQPREPQVYTLPPSRDELTKNQVSLTCLVKGFYPSDIAVEWESNGQPENNYKTTPPVLDSDGSFFLYSKLTVDKSRWQQGNVFSCSVMHEALHNHYTQESLSLSP
light: DIQMTQSPSSLSASVGDRVTITCRASQDISSYLNWYQQKPGKAPKLLIYYTSRLHSGVPSRFSGSGSGTDFTFTISSLQPEDIATYYCQQGNTLPYTFGQGTKVEIK
notes: copies: 2 + 2
relative binding activity [6]: 126 relative (IL6R-BF648/IL6R-L = 100) | relative binding activity [7]: 74 relative (IL6R-BF648/IL6R-L = 100) | relative binding activity [8]: 106 relative (IL6R-BF648/IL6R-L = 100) | relative binding activity [9]: 87 relative (IL6R-BF648/IL6R-L = 100) | relative binding activity [10]: 136 relative (IL6R-BF648/IL6R-L = 100)

B8: IL6R-2B253/IL6R-L (antibody, human IgG1, name in EU numbering)
heavy: B7 heavy with V325M, K332A
light: B7 light
notes: copies: 2 + 2
relative binding activity [6]: 288 relative (IL6R-BF648/IL6R-L = 100) | relative binding activity [7]: 155 relative (IL6R-BF648/IL6R-L = 100) | relative binding activity [8]: 207 relative (IL6R-BF648/IL6R-L = 100) | relative binding activity [9]: 126 relative (IL6R-BF648/IL6R-L = 100) | relative binding activity [10]: 156 relative (IL6R-BF648/IL6R-L = 100)

B9: IL6R-2B261/IL6R-L (antibody, human IgG1, name in EU numbering)
heavy: B7 heavy with Y298D, K332A
light: B7 light
notes: copies: 2 + 2
relative binding activity [6]: 94 relative (IL6R-BF648/IL6R-L = 100) | relative binding activity [7]: 100 relative (IL6R-BF648/IL6R-L = 100) | relative binding activity [8]: 91 relative (IL6R-BF648/IL6R-L = 100) | relative binding activity [9]: 87 relative (IL6R-BF648/IL6R-L = 100) | relative binding activity [10]: 115 relative (IL6R-BF648/IL6R-L = 100)

B10: IL6R-B3/IL6R-L (antibody, human IgG1)
heavy: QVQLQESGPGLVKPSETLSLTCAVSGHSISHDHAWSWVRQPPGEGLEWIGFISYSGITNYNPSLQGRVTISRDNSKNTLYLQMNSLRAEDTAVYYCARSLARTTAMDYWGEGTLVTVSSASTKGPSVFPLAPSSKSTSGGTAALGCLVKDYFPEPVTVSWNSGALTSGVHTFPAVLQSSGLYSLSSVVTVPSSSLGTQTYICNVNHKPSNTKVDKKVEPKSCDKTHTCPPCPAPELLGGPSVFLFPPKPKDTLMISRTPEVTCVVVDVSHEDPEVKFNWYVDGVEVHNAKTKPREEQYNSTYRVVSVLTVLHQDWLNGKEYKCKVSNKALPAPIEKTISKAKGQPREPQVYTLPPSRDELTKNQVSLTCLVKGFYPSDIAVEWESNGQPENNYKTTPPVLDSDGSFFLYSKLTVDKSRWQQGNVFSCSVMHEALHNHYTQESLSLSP
light: B7 light
notes: IL6R-G1d with K439E (EU numbering); parent polypeptide of the variants; copies: 2 + 2
relative binding activity [6]: 625 relative (IL6R-BF648/IL6R-L = 100) | relative binding activity [7]: 145 relative (IL6R-BF648/IL6R-L = 100) | relative binding activity [8]: 1600 relative (IL6R-BF648/IL6R-L = 100) | relative binding activity [9]: 3260 relative (IL6R-BF648/IL6R-L = 100) | relative binding activity [10]: 58 relative (IL6R-BF648/IL6R-L = 100)
